The labels stand for the following.
B1: iRhom2 wild type (HA-tagged) [human] / V5-tagged FRMD8 [not stated] (parent complex)
chain 1: MASADKNGGSVSSVSSSRLQSRKPPNLSITIPPPEKETQAPGEQDSMLPEGFQNRRLKKSQPRTWAAHTTACPPSFLPKRKNPAYLKSVSLQEPRSRWQESSEKRPGFRRQASLSQSIRKGAAQWFGVSGDWEGQRQQWQRRSLHHCSMRYGRLKASCQRDLELPSQEAPSFQGTESPKPCKMPKIVDPLARGRAFRHPEEMDRPHAPHPPLTPGVLSLTSFTSVRSGYSHLPRRKRMSVAHMSLQAAAALLKGRSVLDATGQRCRVVKRSFAFPSFLEEDVVDGADTFDSSFFSKEEMSSMPDDVFESPPLSASYFRGIPHSASPVSPDGVQIPLKEYGRAPVPGPRRGKRIASKVKHFAFDRKKRHYGLGVVGNWLNRSYRRSISSTVQRQLESFDSHRPYFTYWLTFVHVIITLLVICTYGIAPVGFAQHVTTQLVLRNKGVYESVKYIQQENFWVGPSSIDLIHLGAKFSPCIRKDGQIEQLVLRERDLERDSGCCVQNDHSGCIQTQRKDCSETLATFVKWQDDTGPPMDKSDLGQKRTSGAVCHQDPRTCEEPASSGAHIWPDDITKWPICTEQARSNHTGFLHMDCEIKGRPCCIGTKGSCEITTREYCEFMHGYFHEEATLCSQVHCLDKVCGLLPFLNPEVPDQFYRLWLSLFLHAGVVHCLVSVVFQMTILRDLEKLAGWHRIAIIFILSGITGNLASAIFLPYRAEVGPAGSQFGLLACLFVELFQSWPLLERPWKAFLNLSAIVLFLFICGLLPWIDNIAHIFGFLSGLLLAFAFLPYITFGTSDKYRKRALILVSLLAFAGLFAALVLWLYIYPINWPWIEHLTCFPFTSRFCEKYELDQVLH
chain 2: MDGTEGSAGQPGPAERSHRSSVSSVGARAADVLVYLADDTVVPLAVENLPSLSAHELHRAVREVLQLPDIALDVFALWLVSPLLEVQLKPKHQPYKLGRQWPELLLRFTSAPDDDVAMDEPFLQFRRNVFFPKRRELQIHDEEVLRLLYEEAKGNVLAARYPCDVEDCEALGALVCRVQLGPYQPGRPAACDLREKLDSFLPAHLCKRGQSLFAALRGRGARAGPGEQGLLNAYRQVQEVSSDGGCEAALGTHYRAYLLKCHELPFYGCAFFHGEVDKPAQGFLHRGGRKPVSVAISLEGVHVIDSREKHVLLGLRFQELSWDHTSPEEEEPILWLEFDGDSEGTPVNKLLKIYSKQAELMSSLIEYCIELSQAAEPAGPQDSATGSPSDPSSSLAPVQRPKLRRQGSVVSSRIQHLSTIDYVEDGKGIRRVKPKRTTSFFSRQLSLGQGSYTVVQPGDSLEQG

The assay covers variants of B1. Nature of the assay: co-immunoprecipitation (HA-IP) with western blot quantification; iRhom1/2 DKO HEK293T cells co-transfected with V5-tagged FRMD8; three independent experiments; read off a plot. (In general: Immunoblotting shows a protein as a band on a membrane.)
With chain 1 S239A, the ratio to parent is around 1.2. As for chain 1 P233A, chain 1 R234A, chain 1 R235A, chain 1 K236A, chain 1 R237A, chain 1 M238A, the ratio to parent was around 1.05. On to chain 1 P233A, chain 1 R234A, chain 1 R235A, chain 1 K236A, chain 1 R237A, chain 1 M238A, chain 1 S239A, for which the ratio to parent is around 1.1.

The values are drawn from paper PMC12516561 (2025).
